According to publication PMC10180619 (Nature Communications, 2023):

How the values were obtained:
[1] = target: SARS-CoV-2 Beta receptor binding domain (SARS-CoV-2, Beta variant (B.1.351), K417N | E484K | N501Y, biotin (EZ-Link Sulfo-NHS-LC-Biotin, average of four biotins per RBD molecule)); test: BLI; conditions: both partners purified
[2] = target: SARS-CoV-2 Delta receptor binding domain (SARS-CoV-2, Delta variant (B.1.617.2), L452R | T478K, biotin (EZ-Link Sulfo-NHS-LC-Biotin, average of four biotins per RBD molecule)); test: BLI; conditions: both partners purified

B1: ADI-81654 (Fab, V domains shown)
VH: QVQLKQSGPTLVKPTQTLTLTCTFSGFSLSTYGVGVGWIRQPPGKALEWLALIYYDDDKRYSPSLKSRLTITKDTSQNQVVLTMTNMDPVDTATYYCARHTIATIFDFDSWGQGTLVTVSS
VL: QSVLTQPASVSGSPGQSITISCTGTSSDVGGHNYVSWYQQHPGKAPKLMIYEVSNRPSGVSNRFSGSKSGNTASLTISGLQAEDEADYSCSSYASSTSPVVFGGVTKLTVL
Kd [1]: 2.56 nM | Kd [2]: 1.83 nM
